Measurements as given in the DeepSol protein solubility set.

Experiment: soluble on expression in E. coli; label from the status in PepcDB or PDB records

Sequence	soluble on expression in E. coli
MMEMITIKPGKITVQANPNMPKEVAELFRKQHYEIVGRHSGVKLCHWLKKSLTEGRFCYKQKFYGIHSHRCLQMTPVLAWCTHNCIFCWRPMENFLGTELPQPWDDPAFIVEESIKAQRKLLIGYKGNPKVDKKKFEEAWNPTHAAISLSGEPMLYPYMGDLVEEFHKRGFTTFIVTNGTIPERLEEMIKEDKLPTQLYVSITAPDIETYNSVNIPMIPDGWERILRFLELMRDLPTRTVVRLTLVKGENMHSPEKYAKLILKARPMFVEAKAYMFVGYSRNRLTINNMPSHQDIREFAEALVKHLPGYHIEDEYEPSRVVLIMRDDVDPQGTGVEGRFIKHLEHHHHHH	not soluble
MMEYKIVENGLTYRIGNGASVPISNTGELIKGLRNYGPYEVPSLKYNQIALIHNNQFSSLINQLKSQISSKIDEVWHIHNINISEFIYDSPHFDSIKSQVDNAIDTGVDGIMLVLPEYNTPLYYKLKSYLINSIPSQFMRYDILSNRNLTFYVDNLLVQFVSKLGGKPWILNVDPEKGSDIIIGTGATRIDNVNLFCFAMVFKKDGTMLWNEISPIVTSSEYLTYLKSTIKKVVYGFKKSNPDWDVEKLTLHVSGKRPKMKDGETKILKETVEELKKQEMVSRDVKYAILHLNETHPFWVMGDPNNRFHPYEGTKVKLSSKRYLLTLLQPYLKRNGLEMVTPIKPLSVEIVSDNWTSEEYYHNVHEILDEIYYLSKMNWRGFRSRNLPVTVNYPKLVAGIIANVNRYGGYPINPEGNRSLQTNPWFL	soluble
MMFLRQEDFATVVRSTPLVSLDFIVENSRGEFLLGKRTNRPAQGYWFVPGGRVQKDETLEAAFERLTMAELGLRLPITAGQFYGVWQHFYDDNFSGTDFTTHYVVLGFRFRVSEEELLLPDEQHDDYRWLTSDALLASDNVHANSRAYFLAEKRTGVPGL	soluble
MMGFEWGFKPSSKITQSTVSSQGTGNVMIPTAGVKQKRRYANEEQEEEELPRNKNVMKYGGVSKRRPQPGSLIRGQPLPLQRGMELMNKNQLQQLLVDLMTKHPEIQQSVHTRVIGLDFSIQKCLDMLKQKSEAVYQSIPYNRSYESNKLDDYAFVRMKPQILEFLNCLVDFILDNIPPRLENLHASLKFLDICTELVIKLPRFELASNNYYYDKCIEQLSHVWCTLIEHVARDRIILLADNSSVWKSHMTRLQVYNEHSNGLLERPLQLFKSLDMGSPSAASSSTLSLQESIIYHHDTMTANENNNNSGSAATDSPFN	soluble
MMHFEVHGRTDAEAPTILLSSGLGGSSAYWLPQIEALSDHFRIVTYDHRGTGRTGGEVPTEGGISAMADDVLEIVSALNLEKFHFMGHALGGLIGLDIALRQPRLIDRLVLINAWSKADPHSGRCFDVRIELLEKSGVDAFVKAQPLFLYPAAWMSEHQERLARDDAHGVAHFQGKTNVLRRIAALRAFDIDARLGEIGNPVLVVATKDDLLVPYTRSLRLAEGLPQSELCLLDFGAHAVNITEPDLFNTRLLQFLLPADQT	not soluble
MMKEFTPAPDSASIVSVTDRVKPVALGMGVTSVHFLGDRAAFVGGEENVAFVDSQGEITTVAVHGGGILSTASDGKRLVMGGDDGKVVSLDAKGEVTLLATDPKRRWIDAVALHADGAFAWSAGKTATVKSGKTEEKSLEVPSTVGGLAFAPKGLRLAIAHYNGATLWFPNMAASAEFLPWAGSHHAVTFSPDNKFLVTAMHEPALHGWRLADNRHMRMTGYPGRVRSMSWSAGGKALATSGADTVILWPFGSKDGPMGKEPAMLAPLQARVSVVACHPKNDILAAGYSDGTVLMVRLEDGAEILVRRNGTPPVAALAWNAKGTLLAFADENGDGGLLELLEHHHHHH	soluble
MMMLPEACIANILAFTSPADAFSSSEVSSVFRLAGDSDFVWEKFLPSDYKSLISQSTDHHWNISSKKEIYRCLCDSLLIDNARKLFKINKFSGKISYVLSARDISITHSDHASYWSWSNVSDSRFSESAELIITDRLEIEGKIQTRVLSANTRYGAYLIVKVTKGAYGLDLVPAETSIKSKNGQISKSATYLCCLDEKKQQMKRLFYGNREERMAMTVEAVGGDGKRREPKCRDDGWMEIELGEFETREGEDDEVNMTLTEVKGYQLKGGILIDGIEVRPKT	soluble
MMNEYRFHLEKYRLGNRYTCPNCERKRCFTRYIDDEGEVSFPDNVGKCDHEHSCGYHYTPKDYFREHPDFLSKDKLPYPTRGNTQPKVVEKPISYIANAIMERSLSHYGINPLYQYLSKVFGEQETERLMKMYHVGTSYKWGGSTIYWQVDKDDKVRTGKVMLYNPKDGHRVKEPRSYVGWAHAFLHLPDFNLCQCFFGEHLLAQHPTMSVAIVESEKTAIIASHFIPNFIWLATGGMHGCLNQIAVKVLGGRDIILFPDLGATDKWKSKIPLLQSVCKRVVISNILEDNATDEQKTKGLDIADFLLMAETPQMALQRLIKQHPPLKHLIDCLGLVLVEES	not soluble
MMNTSDNHALGDFLRARRQRLDPATFGFPAGRRRTPGLRREEVAQLASISPTWYTWLEQGRGGAPSREVLERIARGLRLTTPEREHLFILAFGHPPQTRLTVTDDMTPRLQRVLDAFTIPAIIRTASWDVIAWNAPAARVLTDYSQLPLAERNVLRRLFTRPEARCTLEDWQRVGQLIVNAFRADVTRMGATKETDQLIAELSQQSVEFARFWQSHDVAGHGEGYKRINHPEMGPLDLEFTSFAVEGRPDLSLLVFNPATTESQRKIHGLLQGAGSAPEES	soluble
MMPGYQSADEFADKEKGWTGVHQWEKEMAKADEKYGPIFAKFAAMPIEEVAKDPQAVKMGGRLFASNCSICHGSDAKGAYGFPNLTDADWRWGGEPETIKTTIMAGRHAAMPAWGEVIGEEGVKNVAAFVLTQMDGRKLPEGAKADIEAGKQVFATTCVACHGPEGKGTPAMGAPDLTHPGAFIYGSSFAQLQQTIRYGRQGVMPAQQEHLGNDKVHLLAAYVYSLSHGE	not soluble
MMPTSTCGYPGMAEQSTVLYTAVGYMVGFVSLFNHTHSQDNFFHRGCYYGCDDDNMRFAFFSKAALEFLLRSNKKPDIIHCHDWQTGLIPIMLYEIYKYHGMEYQRVCYTIHNFKHQGMGGVGTLQATALNEASYYFQYNKLRDNFNPFALNLMKGGIIYSNAVTTVSPHHAVEAQTSE	not soluble
MMRGGMGNMNNMMKQMQKMQKDMAKAQEELGEKTVEGTAGGGMITVIANGHKQILEVKIKEEVVDPEDIEMLQDLVLAATNDALKKADELSNSTMGKFTKGLNLPGGMF	not soluble
MMRPDAKVEKVYLYPKPVDFRKSIDGLAALVELDIKVAVFDPVLFVFLNRHRNRVKILYWERNGFCLWLKRLESERFKTSPDETDEAIVLTVQELNWLLDGFDLWRNRPHKVLTPRFVA	not soluble
MMTDRTERRRRLTHAACTPSANNQRTTRLPPHPGFFSWSNPACDDGLFLYRTTVSRGVDTQRRRRSHPGFFSCRYHPSTVSLARRHRGPGKRISLRTEISKDADPISTVTETRWFLLNFQCIEPPLEHHHHHH	soluble
MNALIVPQWPLPKGVAACSSTRIGGVSLSPYDSLNLGAHCGDNPEHVEENRKRLFAAGNLPSKPVWLEQVHGKNVLRLTGEPYASKRADASYSNTPGTVCAVMTADCLPVLFCNREGTEVAAAHAGWRGLCEGVLEETVTCFADKPENIIAWLGPAIGPAAFEVGPEVRDAFLAKDAQADSAFLPHGEKFLADIYQLARQRLANTGVEHVYGGDRCTFSESETFFSYRRDKTTGRMASFIWLI	soluble
MNALPSSAEFSRAVGGDAVSREAVIRIEHLSKTFSDAAGPVLDDVSLTIRRGEIHGIIGRSGAGKSTLVRCINLLERPSAGRVIVSGREITSLRGRALRNARRDIGMIFQHFNVLSSHTVAGNVALPFKVAGLPRAEIARRIPPLLELVGLAHKADAYPSELSGGQKQRVGIARALALDPSVLLCDEATSALDPETTDQILALLRDINRKLGLTIVLITHEMHVVRDIATRVAVLDHGRVVEEGATFDVLAFPKSAVARSFLSGLVAHELPPPVAAQLLPAAVPGSDPVLRIVFTGTAAHDPIVADLVSVFGIQPNILHGRIDYVGDRPLGVLTLVAGGAGEKLPAVLSHLSSLGLVVEVIGHAVRSAVARRHSAARLEHHHHHH	not soluble
MNCIIAQSGGPTSVINASVYGLVKANKKLNLYENVYGGLNGIEGILNKKIINLSDLDELQLERFKNSPASGLGSCRYKLKPLSESEDEYLKLLDILNSLNIKAFFYVGGNDSMDTTAKLNAFAKAKNIDIKFFGIPKTIDNDLMHTDHTPGFGSAAKFISTAVLETYLDSKVYTNNGIFIIETMGRDTGWLAASGALATINGNKCADLVYLPERAFSVQSFLTDVARIFKEKKHVYIVASEGLKDENGKFLTETAPNDDSFGHAQLGGVGAYLKNLIIQASITHRVKSLELNTLQRCSMHASSKIDVNEAVMVGQAALEASINSEGGYMVAIRRDSSFPYKSSTFLIEADKIANNIKYFPSEWINEEGNNITEEGLLYLKPLISDFEDRDSLPLYHSFVLLEHHHHHH	not soluble
MNDEIISNLHMLSAVHRSLPRDARKDYLSRVRGKVEHLYKAIQGNKKPEINFEVSLEEAKLADKYLKDAKKVRIGNTMSDRDEYLGLLEIADNDERKCVFIHVSIGGIEEGCIVIQLFNDIVPRTAQNFESWCTGEKRGKYGEPLHLKECEIKMILPGSVIGFGDFEENCEYFDDEKSKENHCKNVLSMNIDKSENSSAPLFNMELSDGVDRAGKAIVFGKVVMGNRVIEKVLLAGSRDGIPEQTVKISDCGEMFRGGHSHF	not soluble
MNDETPRCPYNSLYKPLNLIKSKPDGCFKHNGQCTYGKNLVESVDDGNSRTPYNSIYEPLSLNKPKPDGRSSNGKKPVDNEYVNLPVLSEEQKLADKLAAKLRKLEVKEPKSKKRGSKERKKKKSEPVESTYESLATIEGSTNYSGPVTTESLESNVKFHHASQTAYIGVYSSADAEAQVKNRGEFALYHLFEVGNGIDHLTATLPLMLVYYTTTKKHRHYPVRESGGKGMVQYSVDCGYPIVRKHYSLNQLVQYYKSFGSIQMKQEDTCSEEFSWWLE	not soluble
MNDRSSRRRTMKDDETFEISIPFDEAPHLDPQIFYSLSPSRRNFEEPPEAASSALALMNSVKTQLHMALERNSWLQKRIEDLEEERDFLRCQLDKFISSARMEAEDHCRMKPGPRRMEGDSRGGAGGEASDPESAASSLSGASEEGSASERRRQKQKGGASRRRFGKPKARERQRVKDADGVLCRYKKILGTFQKLKSMSRAFEHHRVDRNTVALTTPIAELLIVAPEKLAEVGEFDPSKERLLEYSRRCFLALDDETLKKVQALKKSKLLLPITYRFKR	soluble
MNDRYTNVKIGLEIHVQLSNAGSKLFCGCDSEYRGYKPNTNVCPVCLGLPGALPVPSRRPIVLAIAASMALGCRVPGTVVFTRKHYFYPDLPKNYQITQFEKAGGAPVCMGGVLEYLNTDSWRWERARIRRINLEEDPGKTYYEGSILTSRYALVDYNRSGVPLLEIVTEPDIPSPRHARMLIDYLLLTLEYIGATNPRLEGVFRVDANISIEGGERVEVKNIGSTQDVEKALKFEISRQRLIVERGGKVERETRHWDAERGMTKPLRLKEEEADYLYFPDPDLPPVEITEDMLAEAEKLASKTPGTIYREIESMGVRREIAWSITSTLPAARLFLEAVKLGADPRIAARLVGVDLKGELKEMGKDLYSPNNWPPPQSIAILSNLVARGDYTYDSIKGLVVPKLAANPGSDVKSLLPEKVKDIERLVEEVLNREKRAVQDYLAGKKKALNYLVGQVMRAAKGRALDPRQAREILLRRLSTVKEEDR	soluble
MNDVSKASLPKAIFLMGPTASGKTALAIELRKVLPVELISVDSALIYRGMDIGTAKPNADELKAAPHRLLDIRDPSQAYSAADFRRDALAQMAEITAAGRIPLLVGGTMLYFKALLEGLSPLPSADPEVRSRIEQQAAELGWEALHQQLQEIDPVAAARIHPNDPQRLSRALEVFFISGKTLTELTQTSGDALPYQVHQFAIAPASRELLHQRIELRFHQMLASGFEAEVRALFARGDLHTDLPSIRCVGYRQMWSYIEGEISYDEMVYRGVCATRQLAKRQMTWLRGWEGVRWLDSENPDRARKEVLQVVGAIADMAGDPLEHHHHHH	not soluble
